Measurements reported in patent publication EP2390325A1, “FLAVONOID-3-GLUCURONYLTRANSFERASE AND POLYNUCLEOTIDE ENCODING SAME” (Suntory Holdings Limited, priority 2009, dated 2010).

How the values were obtained:
[1] = biological target: T1, VvGT5 (Vitis vinifera, UniProt C7G3B5); test: Glycosyl donor specificity of VvGT5, product amount by HPLC; assay type: biochemical; details: 100 µM quercetin, 1 mM glycosyl donor, pH 9.5, 30°C, 15 minutes
T1 sequence (C7G3B5 1-459): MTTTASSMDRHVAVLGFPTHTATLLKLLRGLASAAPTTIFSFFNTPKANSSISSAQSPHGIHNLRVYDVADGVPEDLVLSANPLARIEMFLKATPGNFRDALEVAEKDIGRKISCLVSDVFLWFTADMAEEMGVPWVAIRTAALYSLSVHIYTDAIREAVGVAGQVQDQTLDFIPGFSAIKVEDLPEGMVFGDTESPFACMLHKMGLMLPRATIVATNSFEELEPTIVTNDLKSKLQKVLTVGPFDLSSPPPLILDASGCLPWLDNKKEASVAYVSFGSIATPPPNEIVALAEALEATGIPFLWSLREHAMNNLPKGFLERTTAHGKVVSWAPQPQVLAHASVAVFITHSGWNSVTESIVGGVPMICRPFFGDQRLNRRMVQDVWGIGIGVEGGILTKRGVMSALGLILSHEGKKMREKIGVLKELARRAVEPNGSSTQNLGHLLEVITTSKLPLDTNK
Method: (§1) Next, the glycosyl donor specificity of this enzyme was examined. […] The reaction was started by adding the glycosyl acceptor. The reaction was stopped by adding an equal volume of 40% acetonitrile solution containing 0.1% TFA. After the reaction was stopped, the solution was centrifuged (15000 rpm, 2 mins., 4°C) and 100 µl of the resulting supernatant was provided for the HPLC analysis. The amounts of the products produced in the respective glycosyl donors were compared.

[2] = biological target: T1, VvGT5; test: Glycosyl acceptor specificity of VvGT5, product amount by HPLC; assay type: biochemical; details: 100 µM glycosyl acceptor, 1 mM UDP-glucuronic acid, pH 9.5, 30°C, 15 minutes
Method: as §1, with “acceptor” for “donor”, “were compared for each” for “in the respective”, “acceptor.” for “donors were compared.”
Anthocyanins were analyzed under the conditions below using the HPLC system described above. Conditions for the HPLC analysis of anthocyanins were as follows. Asahipak ODP-50 4E (4.6 x 250 mm, Showa Denko K.K.) as a column was used at room temperature. Moving phase A (0.5% TFA/H2O) and moving phase B (0.5% TFA/50% GH3CN) were used. Conditions for elution were as follows: Equilibration was performed with B30% for 3 minutes, followed by linear density gradients (B30%→B65%) for 15 minutes and (B65%→B100%) for further 1 minute, which was maintained for 5 minutes at B100%. Thereafter, the condition was again reverted to B30% to equilibrate for 10 minutes. The flow rate was 0.7 ml/min. Detection was performed at 520 nm. Under the conditions, standard pelargonidin, cyanidin and delphinidin were sequentially eluted in this order at retention times of approximately […], respectively.

[3] = substrate: O=C(O)[C@H]1O[C@H](OP(=O)(O)OP(=O)(O)OC[C@H]2O[C@@H](n3ccc(=O)[nH]c3=O)[C@H](O)[C@@H]2O)[C@H](O)[C@@H](O)[C@@H]1O; test: purified protein, by the assay type; details: other: glycosyl donor; purified His-tagged VvGT5; pH 9.5; 30.0 °C
[4] = substrate: O=c1c(O)c(-c2ccc(O)c(O)c2)oc2cc(O)cc(O)c12; test: Kinetic analysis of VvGT5 (Km, kcat); assay type: biochemical, Vitis vinifera; details: other: glycosyl acceptor substrate; purified His-tagged VvGT5; pH 9.5; 30.0 °C
[5] = substrate: O=c1c(O)c(-c2ccc(O)cc2)oc2cc(O)cc(O)c12; test: Kinetic analysis of VvGT5 (Km, kcat); assay type: biochemical, Vitis vinifera; details: other: glycosyl acceptor substrate; purified His-tagged VvGT5; pH 9.5; 30.0 °C
[6] = substrate: COc1cc(-c2oc3cc(O)cc(O)c3c(=O)c2O)ccc1O; test: Kinetic analysis of VvGT5 (Km, kcat); assay type: biochemical, Vitis vinifera; details: other: glycosyl acceptor substrate; purified His-tagged VvGT5; pH 9.5; 30.0 °C

Molecule: O=C(O)[C@H]1O[C@H](OP(=O)(O)OP(=O)(O)OC[C@H]2O[C@@H](n3ccc(=O)[nH]c3=O)[C@H](O)[C@@H]2O)[C@H](O)[C@@H](O)[C@@H]1O [UDP-glucuronic acid]
- product formation with glycosyl donor [1]: the product was obtained only when UDP-glucuronic acid was used as the substrate

Molecule: O=c1c(O)c(-c2ccc(O)c(O)c2)oc2cc(O)cc(O)c12 [quercetin]
- activity of VvGT5 on glycosyl acceptor [2]: highest activity

B1: VvGT5 (Vitis vinifera) (protein)
chain: T1 sequence (C7G3B5 1-459)
- Km [3]: 17.7 µM
- Km [4]: 5.60 ± 1.76 µM
- kcat [4]: 7.16 ± 0.37 s⁻¹
- Km [5]: 10.8 ± 0.4 µM
- kcat [5]: 6.05 ± 0.05 s⁻¹
- Km [6]: 7.92 ± 0.32 µM
- kcat [6]: 0.413 ± 0.03 s⁻¹
